{"source": "paper PMC9274624", "assay_in_all_cases": "SPR", "key": {"[1]": {"molecular_target": "sheep ACE2 extracellular domain (residues 1-740) fused with the Fc domain of mouse IgG (sheep)"}, "[2]": {"molecular_target": "fulvous fruit bat ACE2 extracellular domain (residues 1-740) fused with the Fc domain of mouse IgG (fulvous fruit bat)"}, "[3]": {"molecular_target": "goat ACE2 extracellular domain (residues 1-740) fused with the Fc domain of mouse IgG (goat)"}, "[4]": {"molecular_target": "mink ACE2 extracellular domain (residues 1-740) fused with the Fc domain of mouse IgG (mink)"}, "[5]": {"molecular_target": "big-eared horseshoe bat ACE2 extracellular domain (residues 1-740) fused with the Fc domain of mouse IgG (big-eared horseshoe bat)"}, "[6]": {"molecular_target": "pig ACE2 extracellular domain (residues 1-740) fused with the Fc domain of mouse IgG (pig) (UniProt K7GLM4)"}, "[7]": {"molecular_target": "wild Bactrian camel ACE2 extracellular domain (residues 1-740) fused with the Fc domain of mouse IgG (wild Bactrian camel)"}, "[8]": {"molecular_target": "rabbit ACE2 extracellular domain (residues 1-740) fused with the Fc domain of mouse IgG (rabbit) (UniProt G1TEF4)"}, "[9]": {"molecular_target": "monkey ACE2 extracellular domain (residues 1-740) fused with the Fc domain of mouse IgG (monkey) (UniProt F7AH40)"}, "[10]": {"molecular_target": "fox ACE2 extracellular domain (residues 1-740) fused with the Fc domain of mouse IgG (fox)"}, "[11]": {"molecular_target": "horse ACE2 extracellular domain (residues 1-740) fused with the Fc domain of mouse IgG (horse) (UniProt F6V9L3)"}, "[12]": {"molecular_target": "raccoon dog ACE2 extracellular domain (residues 1-740) fused with the Fc domain of mouse IgG (raccoon dog) (UniProt B4XEP4)"}, "[13]": {"molecular_target": "alpaca ACE2 extracellular domain (residues 1-740) fused with the Fc domain of mouse IgG (alpaca)"}}}
{"substance": "SARS-CoV-2 Delta RBD (residues 319-541) (from UniProt P0DTC2 319-541) (domain or fragment)", "values": [{"measurement": "Kd", "setting": "[1]", "value": 61, "unit": "nM"}, {"measurement": "Kd", "setting": "[2]", "value": 200, "unit": "nM"}, {"measurement": "Kd", "setting": "[3]", "value": 66.2, "unit": "nM"}, {"measurement": "Kd", "setting": "[4]", "value": 288, "unit": "nM"}, {"measurement": "Kd", "setting": "[5]", "value": 49.6, "unit": "nM"}, {"measurement": "Kd", "setting": "[6]", "value": 64.4, "unit": "nM"}, {"measurement": "Kd", "setting": "[7]", "value": 233, "unit": "nM"}, {"measurement": "Kd", "setting": "[8]", "value": 58.3, "unit": "nM"}, {"measurement": "Kd", "setting": "[9]", "value": 16.5, "unit": "nM"}, {"measurement": "Kd", "setting": "[10]", "value": 35.6, "unit": "nM"}, {"measurement": "Kd", "setting": "[11]", "value": 79, "unit": "nM"}, {"measurement": "Kd", "setting": "[12]", "value": 124, "unit": "nM"}, {"measurement": "Kd", "setting": "[13]", "value": 381, "unit": "nM"}]}
